In assay [1] the target is human mitochondrial DnaK-type chaperone mtHSP70, mature form (human) (UniProt P38646).
Assay [2] has as its target human iron-sulfur cluster scaffold protein ISCU, wild type, mature form (human) (UniProt Q9H1K1). The experiment in a line: NMR titration; 1H,15N TROSY-HSQC of 0.5 mM U-15N-ISCU or U-15N-ISCU(N90A), aliquots of 0.4 mM unlabeled HSC20 added up to equimolar; TKDM buffer, 25 °C; %S from the Trp-76 cross-peaks and chemical shift perturbations.
Assay [3] addresses human ISCU(N90A), mature form (human). Described as above.
Assay [4] addresses human ISCU(H105A), mature form (human). Nature of the assay: NMR titration; 1H,15N HSQC / TROSY-HSQC of 0.5 mM U-15N-ISCU or variant, aliquots of 0.5 mM unlabeled mtHSP70 added up to equimolar; TKDM buffer (50 mM Tris-HCl pH 7.5, 150 mM KCl, 5 mM DTT, 10 mM MgCl2), 25 °C; %S from the Trp-76 cross-peaks.
The target of assay [5] is human ISCU(N90A), mature form (human). The description is as above.
In assay [6] the target is human mitochondrial DnaK-type chaperone mtHSP70, mature form (human, UniProt P38646 47-679). Nature of the assay: cell-based or functional assay.
Chain of human mitochondrial DnaK-type chaperone mtHSP70, mature form (human, UniProt P38646 47-679) (P38646 47-679): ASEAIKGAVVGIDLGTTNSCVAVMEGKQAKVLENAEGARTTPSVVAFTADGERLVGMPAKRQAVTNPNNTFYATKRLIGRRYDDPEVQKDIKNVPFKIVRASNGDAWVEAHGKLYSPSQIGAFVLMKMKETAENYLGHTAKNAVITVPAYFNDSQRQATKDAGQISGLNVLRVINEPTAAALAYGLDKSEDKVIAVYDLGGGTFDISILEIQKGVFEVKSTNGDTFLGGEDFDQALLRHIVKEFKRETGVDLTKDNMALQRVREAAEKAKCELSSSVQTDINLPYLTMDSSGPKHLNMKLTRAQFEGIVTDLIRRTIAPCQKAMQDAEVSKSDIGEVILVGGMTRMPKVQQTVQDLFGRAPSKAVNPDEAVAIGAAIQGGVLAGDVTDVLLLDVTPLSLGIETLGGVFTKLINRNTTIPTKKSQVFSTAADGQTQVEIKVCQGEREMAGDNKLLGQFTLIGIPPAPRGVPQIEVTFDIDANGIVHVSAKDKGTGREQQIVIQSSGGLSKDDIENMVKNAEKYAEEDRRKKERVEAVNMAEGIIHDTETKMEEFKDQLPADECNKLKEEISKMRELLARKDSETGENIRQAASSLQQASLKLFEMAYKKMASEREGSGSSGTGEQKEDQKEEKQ

Chain of human mitochondrial DnaK-type chaperone mtHSP70, mature form (human) (P38646 47-679): as above

Turning to “human ISCU(N90A), mature form (natural protein)”, in assay [1], the ATPase activity of 1 μM mtHSP70: concentration of ISCU(N90A) required for half-maximal stimulation in the presence of 5 μM HSC20, double-reciprocal plot amounted to 3.5 µM; the ATPase activity of 1 μM mtHSP70: maximal stimulation by ISCU(N90A) in the presence of 5 μM HSC20, double-reciprocal plot was found to be 8 fold; the ATPase activity of 1 μM mtHSP70 as a function of added ISCU(N90A) up to 24 μM in the presence of 5 μM HSC20: increase over basal activity is 7 fold.
As to “human mitochondrial DnaJ-type co-chaperone HSC20, mature form (natural protein)”, in assay [2], the %S of ISCU after adding equimolar HSC20 is 31%. Moreover, the %S of ISCU(N90A) after adding 1 eq of HSC20 in assay [3] came to 99%.
In turn, “human mitochondrial DnaK-type chaperone mtHSP70, mature form (from UniProt P38646 47-679) (natural protein)” had a %S of ISCU(H105A) at mole fraction 1.0 of added mtHSP70 in assay [4] of 0.54%. The molecule further displayed a %S of ISCU(N90A) at mole fraction 1.0 of added mtHSP70 in assay [5] of 83%.

B1: human iron-sulfur cluster scaffold protein ISCU, wild type, mature form (natural protein, UniProt Q9H1K1 35-167, looked up)
chain: YHKKVVDHYENPRNVGSLDKTSKNVGTGLVGAPACGDVMKLQIQVDEKGKIVDARFKTFGCGSAIASSSLATEWVKGKTVEEALTIKNTDIAKELCLPPVKLHCSMLAEDAIKAALADYKLKQEPKKGEAEKK
On to B1, for which, in assay [6], the “ATPase activity of 1 μM mtHSP70: increase over basal activity with 15 μM ISCU and 4 μM HSC20” value was about 15 fold; the “ATPase activity of 1 μM mtHSP70: maximal stimulation upon adding ISCU in the presence of 5 μM HSC20, double-reciprocal plot” value was about 17 fold.
